Measurements from patent US20240124590A1 (ULTRAHUMAN EIGHT, published 2024).
Read-outs that look alike come from different tables or passages of the source.

Legend:
[1] = biological target: T1, human PD1 human Fc tagged recombinant protein (human, UniProt Q15116 25-170, limits assumed); assay: direct ELISA, IgG1null on coated PD1-Fc
T1 construct: also called huPD1-Fc; huPD-1-Fc; not shown: human Fc tag
Method: (§1) Binding and cross-reactivity of the lead panel to the recombinant proteins was initially assessed by binding ELISA. The human PD1 human Fc tagged recombinant protein and the cynomolgus monkey PD1 human Fc tagged recombinant protein were coated to the surface of MaxiSorp™ flat-bottom 96 well plate at 1 μg/ml. […] The Fabs were detected using mouse anti-c-myc antibody followed by donkey anti-mouse IgG conjugated to horseradish peroxidase. The IgGs were detected using the mouse anti-human IgG conjugated to horseradish peroxidase. Binding signals were visualized with 3,3′,5,5′-Tetrannethylbenzidine Substrate Solution (TMB) and the absorbance measured at 450 nm.
(§2) The purified IgGs described above were then tested for binding to human and cyno PD1-Fc in direct titration ELISA format. […] As the ELISA EC50 values for directly binding IgGs are strongly influenced by avidity, rather than true 1:1 binding affinity, we then proceeded to perform higher-sensitivity, solution-phase epitope competition and Biacore binding affinity determinations, as outlined below.

[2] = biological target: T2, cynomolgus monkey PD1 human Fc tagged recombinant protein (cynomolgus monkey, UniProt Q15116 25-170 (human entry), limits assumed); assay: direct ELISA, IgG1null on coated PD1-Fc
T2 construct: also called cyPD1-Fc; cyPD-1-Fc; not shown: human Fc tag
T2 chain: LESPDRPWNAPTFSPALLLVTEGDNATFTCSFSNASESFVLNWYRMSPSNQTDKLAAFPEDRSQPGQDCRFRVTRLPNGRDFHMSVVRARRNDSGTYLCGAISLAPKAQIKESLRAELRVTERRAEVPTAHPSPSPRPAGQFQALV
Method: as §1, §2

[3] = biological target: T3, human FZD5 (frizzled class receptor 5) on transfected HEK293 cells (human, UniProt Q13467 27-585); assay: cell microarray re-array, transfected HEK293
T3 construct: also called FZDS; FZ5
Method: (§3) Antibody binding was detected using AF647 fluorescent secondary anti-human IgG1 antibody. Primary hits (duplicate spots) were identified by analysing fluorescence (AF647 and ZsGreen1) on ImageQuant. Vectors encoding all hits were sequenced to confirm their correct identities. […] Slides were analysed as above. Flow cytometry confirmation screen: Expression vectors encoding ZsGreen1 only, or ZsGreen1 and PD1, FZDS, KDR or ULBP2, were transfected into human HEK293 cells. Each live transfectant was incubated with […] of each of the test antibodies and the Isotype control antibody. Cells were washed, and incubated with the same AF647 anti-human IgG Fc detection antibody as used in the cell microarray screens. Cells were again washed, and analysed by flow cytometry using an Accuri flow cytometer (BD). A 7AAD live/dead dye was used to exclude dead cells, and ZsGreen1-positive cells (i.e. transfected cells) were selected for analyses.

[4] = biological target: T4, human KDR (VEGFR2) on cells (human, UniProt P35968 20-1356); assay: cell microarray re-array, transfected HEK293
T4 construct: Transfected HEK293 cells (arrays, flow cytometry) and human VEGFR2 reporter cells
T4 sequence (P35968 20-1356 limits assumed): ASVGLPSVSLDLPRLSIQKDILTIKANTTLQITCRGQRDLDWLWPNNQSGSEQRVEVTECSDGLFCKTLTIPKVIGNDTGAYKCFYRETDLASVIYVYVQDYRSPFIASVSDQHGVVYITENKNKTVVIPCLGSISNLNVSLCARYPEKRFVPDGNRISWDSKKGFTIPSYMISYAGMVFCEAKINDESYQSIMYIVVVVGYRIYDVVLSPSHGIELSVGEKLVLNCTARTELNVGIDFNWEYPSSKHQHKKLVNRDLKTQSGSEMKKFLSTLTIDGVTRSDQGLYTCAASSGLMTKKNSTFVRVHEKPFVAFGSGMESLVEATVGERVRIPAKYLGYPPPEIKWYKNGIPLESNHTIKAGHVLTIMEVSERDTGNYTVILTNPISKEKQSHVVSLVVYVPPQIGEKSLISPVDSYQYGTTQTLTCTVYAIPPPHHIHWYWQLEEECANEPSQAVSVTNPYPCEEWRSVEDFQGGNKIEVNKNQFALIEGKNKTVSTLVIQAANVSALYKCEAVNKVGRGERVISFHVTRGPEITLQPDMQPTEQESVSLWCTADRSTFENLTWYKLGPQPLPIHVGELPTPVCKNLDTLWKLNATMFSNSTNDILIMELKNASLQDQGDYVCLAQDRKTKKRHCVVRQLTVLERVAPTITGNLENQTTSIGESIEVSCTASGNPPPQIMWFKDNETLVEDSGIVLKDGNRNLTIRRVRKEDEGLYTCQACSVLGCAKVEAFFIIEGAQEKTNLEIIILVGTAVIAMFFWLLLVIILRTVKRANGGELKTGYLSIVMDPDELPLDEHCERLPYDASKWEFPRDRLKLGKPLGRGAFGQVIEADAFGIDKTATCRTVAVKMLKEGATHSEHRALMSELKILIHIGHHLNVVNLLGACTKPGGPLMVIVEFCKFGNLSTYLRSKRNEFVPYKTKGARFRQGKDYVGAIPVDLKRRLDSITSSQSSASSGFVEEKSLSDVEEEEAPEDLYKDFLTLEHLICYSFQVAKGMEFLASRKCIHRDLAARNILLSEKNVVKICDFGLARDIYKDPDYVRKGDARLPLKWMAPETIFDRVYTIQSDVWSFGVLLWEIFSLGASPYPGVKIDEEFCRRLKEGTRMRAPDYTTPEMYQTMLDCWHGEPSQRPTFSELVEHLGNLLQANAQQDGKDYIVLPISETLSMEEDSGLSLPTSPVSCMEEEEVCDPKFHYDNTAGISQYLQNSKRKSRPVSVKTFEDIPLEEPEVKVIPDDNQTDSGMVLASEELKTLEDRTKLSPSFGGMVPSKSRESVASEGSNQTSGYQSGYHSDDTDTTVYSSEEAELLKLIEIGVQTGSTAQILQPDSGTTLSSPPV
Method: as §3

[5] = biological target: T5, human ULBP2 (UL16 binding protein 2) on transfected HEK293 cells (human, UniProt Q9BZM5 26-217); assay: cell microarray re-array, transfected HEK293
T5 sequence: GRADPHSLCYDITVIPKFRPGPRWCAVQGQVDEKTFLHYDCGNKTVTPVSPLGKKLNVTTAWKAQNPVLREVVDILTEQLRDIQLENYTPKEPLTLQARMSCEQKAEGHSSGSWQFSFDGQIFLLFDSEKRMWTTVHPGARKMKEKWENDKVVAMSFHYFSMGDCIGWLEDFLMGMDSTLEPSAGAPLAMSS
Method: as §3

[6] = biological target: T6, cynomolgus monkey PD1 His tag (monomeric) (cynomolgus monkey, UniProt Q15116 25-170 (human entry), limits assumed); assay: SPR (Biacore), IgG captured, monomeric PD1-His analyte
T6 construct: Soluble monomeric analyte; whole entry named; also called monomeric cyno PD1; not shown: His tag
T6 chain: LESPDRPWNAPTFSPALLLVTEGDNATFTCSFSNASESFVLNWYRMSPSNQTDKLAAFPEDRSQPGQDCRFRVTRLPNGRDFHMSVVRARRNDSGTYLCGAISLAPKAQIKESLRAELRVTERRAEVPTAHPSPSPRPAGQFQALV

[7] = biological target: T1, human PD1 human Fc tagged recombinant …; assay: direct ELISA, IgG1null on coated PD1-Fc; remark: listed apart in the source
Method: as §1, §2

[8] = biological target: T2, cynomolgus monkey PD1 human Fc tagged …; assay: direct ELISA, IgG1null on coated PD1-Fc
Method: as §1, §2

T1 sequence (Q15116 25-170 limits assumed): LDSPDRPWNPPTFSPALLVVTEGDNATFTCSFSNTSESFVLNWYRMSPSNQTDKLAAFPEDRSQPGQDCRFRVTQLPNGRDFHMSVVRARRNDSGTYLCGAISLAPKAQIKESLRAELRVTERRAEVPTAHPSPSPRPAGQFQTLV

B1: IgG1-08 (antibody, V domains shown)
VH: EVQLVESGGGLVQPGGSLRLSCAASGFTFSSYLMSWVRQAPGKGLEWVATISGGGSEKYYVDSVKGRFTISRDNAKNSLYLQMNSLRAEDTAVYYCARQLYGFDYWGQGTLVTVSS
VL: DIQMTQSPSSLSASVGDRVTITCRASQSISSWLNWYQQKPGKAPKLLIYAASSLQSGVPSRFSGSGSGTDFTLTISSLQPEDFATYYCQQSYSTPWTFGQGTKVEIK
notes: Designer; human IgG1null + Ckappa; also called Antibody IgG1-08; MAB08
Q: Which results are given for B1?
A: EC50 [1]: 0.134 nM; EC50 [2]: 0.0771 nM; binding result [3]: no binding (tested: 5 µg/ml); binding result [4]: no binding (tested: 5 µg/ml); binding result [5]: no binding (tested: 5 µg/ml); Kd [6]: 3.4 nM; koff [6]: 0.00052 s⁻¹; kon [6]: 150000 M⁻¹ s⁻¹

B2: IgG1-06D02 (antibody, V domains shown)
VH: EVQLVESGGGLVQPGGSLRLSCAASGFTFSSYLMSWVRQAPGKGLEWVATISGGGSETYYVDSVKGRFTISRDNAKNSLYLQMNSLRAEDTAVYYCARQLYGFDYWGQGTLVTVSS
VL: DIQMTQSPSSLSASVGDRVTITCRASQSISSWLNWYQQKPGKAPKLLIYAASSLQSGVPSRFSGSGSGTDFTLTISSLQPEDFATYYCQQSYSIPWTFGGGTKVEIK
notes: Library-derived; human IgG1null + Ckappa; also called Clone 06D02
Q: Which EC50 [7] does the source give for B2 here?
A: 0.065 nM

Q: And the EC50 [8]?
A: 0.104 nM

Q: Does B2 bind [3]?
A: no binding (tested: 5 µg/ml)

Q: Does B2 bind [4]?
A: no binding (tested: 5 µg/ml)

Q: Does B2 bind [5]?
A: no binding (tested: 5 µg/ml)

Q: What about the Kd [6] of the same binder?
A: 4.9 nM

Q: What about the koff [6] of the same binder?
A: 0.00062 s⁻¹

Q: And the kon [6]?
A: 130000 M⁻¹ s⁻¹

B3: IgG1-05 (antibody, V domains shown)
VH: EVQLVESGGGLVQPGGSLRLSCAASGFTFSSYLMSWVRQAPGKGLEWVATISGGGSEKYYVDSVKGRFTISRDNAKNSLYLQMNSLRAEDTAVYYCARQVYYFDYWGQGTLVTVSS
VL: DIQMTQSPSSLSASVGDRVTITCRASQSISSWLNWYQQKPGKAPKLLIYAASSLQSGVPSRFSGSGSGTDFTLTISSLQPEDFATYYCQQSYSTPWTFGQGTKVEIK
notes: Designer; human IgG1null + Ckappa; also called Antibody IgG1-05
Q: What does the source list for B3?
A: EC50 [1]: 0.121 nM; EC50 [2]: 0.135 nM; binding result [3]: no binding (tested: 5 µg/ml); binding result [4]: no binding (tested: 5 µg/ml); binding result [5]: no binding (tested: 5 µg/ml); Kd [6]: 2.8 nM; koff [6]: 0.00033 s⁻¹; kon [6]: 120000 M⁻¹ s⁻¹
